The Km is the substrate concentration at which the rate is half of its maximum. What is called kcat is the maximal rate divided by the concentration of active sites. One may read the kcat/Km as the second-order rate constant that governs catalysis at low substrate concentration.

The target of data set [1] is AstC (ACIAD1284) (Acinetobacter baylyi, UniProt Q6FCQ2). To be noted: 10 mM DAP; 5 mM 2-oxoglutarate; 200 μM PLP; 200 μM NAD+; pH 9.0; 25 °C.
Data set [2] addresses Dat (ACIAD1210) (Acinetobacter baylyi, UniProt Q6FCX2). The settings on record: 10 mM DAP; 5 mM 2-oxoglutarate; 200 μM PLP; 200 μM NAD+; pH 9.0; 25 °C.
Substrate in data set [3]: NCC[C@H](N)C(=O)O
The data set is described as follows: purified protein. In kind it is biochemical, Acinetobacter baylyi. To be noted: 100 mM Tris-HCl pH 8.5, 200 μM PLP, 2.5 mM CaCl2, 25 °C.

Substrate in data set [4]: NCCCN
The data set is described as follows: purified protein. To be noted: 200 μM PLP.

Substrate in data set [5]: NC(=O)c1ccc[n+]([C@@H]2O[C@H](COP(=O)(O)OP(=O)(O)OC[C@H]3O[C@@H](n4cnc5c(N)ncnc54)[C@H](O)[C@@H]3O)[C@@H](O)[C@H]2O)c1
The data set is described as follows: purified protein. The settings on record: pH 9.0, 25 °C, varied: cofactor.

Substrate in data set [6]: NCCC=O
The data set is described as follows: purified protein. To be noted: pH 9.0, 25 °C.

Substrate in data set [7]: NCCCC(=O)O
The data set is described as follows: purified protein. The settings on record: 500 μM 2-oxoglutarate, 200 μM PLP, 5 mM NAD+, pH 9.0, 25 °C.

Substrate in data set [8]: O=C(O)CCC(=O)C(=O)O
The data set is described as follows: purified protein. The settings on record: 4 mM GABA, 200 μM PLP, 5 mM NAD+, pH 9.0, 25 °C.

Substrate in data set [9]: NC(=O)c1ccc[n+]([C@@H]2O[C@H](COP(=O)(O)OP(=O)(O)OC[C@H]3O[C@@H](n4cnc5c(N)ncnc54)[C@H](OP(=O)(O)O)[C@@H]3O)[C@@H](O)[C@H]2O)c1
The data set is described as follows: purified protein. To be noted: pH 9.0, 25 °C, varied: cofactor.

The mark [10] stands for this setting: 1 mM NAD+, BetB, 2.5 mM CaCl2, pH 9.0, 25 °C.
Setting [11] is: 500 μM 2-oxoglutarate, 5 mM NAD+, pH 9.0, 25 °C.

Sequence of Dat (ACIAD1210) (Q6FCX2 1-456): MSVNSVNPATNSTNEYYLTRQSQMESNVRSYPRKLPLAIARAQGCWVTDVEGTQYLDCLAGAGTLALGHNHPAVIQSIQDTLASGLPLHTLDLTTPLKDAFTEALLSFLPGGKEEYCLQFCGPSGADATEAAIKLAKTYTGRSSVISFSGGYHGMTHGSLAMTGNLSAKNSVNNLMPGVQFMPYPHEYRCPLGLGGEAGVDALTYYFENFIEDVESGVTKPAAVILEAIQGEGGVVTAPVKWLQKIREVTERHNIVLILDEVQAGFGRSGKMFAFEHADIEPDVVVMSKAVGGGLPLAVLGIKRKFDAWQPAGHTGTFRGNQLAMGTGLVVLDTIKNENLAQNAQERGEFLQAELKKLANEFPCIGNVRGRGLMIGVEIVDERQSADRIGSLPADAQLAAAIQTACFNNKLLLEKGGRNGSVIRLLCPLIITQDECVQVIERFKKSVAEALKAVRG
Sequence of AstC (ACIAD1284) (Q6FCQ2 1-403): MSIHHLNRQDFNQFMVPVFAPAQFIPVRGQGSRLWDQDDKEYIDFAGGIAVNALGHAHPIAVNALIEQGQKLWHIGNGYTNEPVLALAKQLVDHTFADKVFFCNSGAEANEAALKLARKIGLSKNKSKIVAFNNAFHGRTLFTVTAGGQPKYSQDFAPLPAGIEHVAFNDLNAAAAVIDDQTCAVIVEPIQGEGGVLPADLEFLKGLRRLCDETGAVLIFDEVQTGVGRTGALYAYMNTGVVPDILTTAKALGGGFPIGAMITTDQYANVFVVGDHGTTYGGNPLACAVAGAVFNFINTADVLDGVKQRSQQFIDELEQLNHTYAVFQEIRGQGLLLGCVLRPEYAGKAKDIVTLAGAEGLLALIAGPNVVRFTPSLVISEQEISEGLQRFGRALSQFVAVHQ

In the case of `NCCCN` [DAP], the “BetB-coupled assay, NADH at 340 nm (aminotransferase)” value was “activity of AstC and Dat was too low to determine their kinetic parameters” in data set [1]; “activity of AstC and Dat was too low to determine their kinetic parameters” in data set [2].

B1: Ddc (ACIAD1211) (Acinetobacter baylyi ADP1) (protein)
chain: MVDFAEHRKALLCNDAASIAEYQSAMDEAVKAVAAWLQNDKMYTGGSIKELRSAIAFNPSKEGLGLHQSLGRMVELFLNKSLKVHHPYSLAHLHCPTMVTSQIAEVLINATNQSMDSWDQSPAGSLMEVQLIDWLRQKVGYGVGQAGVFTSGGTQSNLMGVLLARDWAIAKNFTDENGQPWSVQRDGIPAEAMRNIKVICSENAHFSVQKNMAMMGMGFQSVVTVPVNENAQMDVDALEKTMSHLQSEGKIVACVVATAGTTDAGAIDPLKKIREITTKYGAWMHIDAAWGGALILSNDYRDMLDGIELSDSITLDFHKHYFQSISCGAFLLKDEANYRFMHYEAEYLNSAYDEEHGVPNLVSKSLQTTRRFDALKLWMTVEALGEELYGSMIDHGVKLTREVADYIKATEGLELLVEPQFASVLFRVVPDGYPVELIDTLNQNVADELFARGDANIGVTKVGAVQSLKMTTLSPVATLENVKGLLAMVLAESDRIKDSIAAGTYVPAID
With B1, in data set [3], the Michaelis-Menten constant (Km) was 1585 ± 257 µM, the kcat was determined as 12.1 ± 1.1 s⁻¹ and the kcat/Km worked out at 7600 M⁻¹ s⁻¹. Moreover, in data set [4] (setting [10]), the Km came out at 710 ± 113 µM, the kcat turned out to be 0.009 s⁻¹ and the specificity constant (kcat/Km) turned out to be 13 M⁻¹ s⁻¹.

B2: AcoD (ACIAD2018) (Acinetobacter baylyi ADP1) (protein)
chain: MRYIDPNQPGSKVQFKAQYENFIGGQWVPPVKGEYFGNSSPVDGKVFTQIPRSSVEDIELALDAAHKAKADWNKASPTVRSNVLLKIADRLEENLELLAVAETWENGKPIRETLAADIPLAIDHFRYFAGCIRAQEGGISEIDEDTIAYHFHEPLGVVGQIIPWNFPILMAAWKLAPALAAGNCIVLKPAEQTPSSILVLAELIQDLLPPGVLNIVNGYGAEVGRPLATNPRISKIAFTGSTKVGQMIMQYATENIIPVTLELGGKSPNIFFEDILDKEDDYLEKTLEGFAMFALNQGEVCTCPSRALVQESIADKFLEMAVERVKRIKTGHPLDTETMIGAQASKQQFDKILGCIDTGRNEGAQLLTGGDARHDVDGGFYIEPTIFKGNNSMKIFQEEIFGPVLSVTTFKDFDDAMRIANDTIYGLGAGVWSRSAHTSYRAGRAIEAGRVWTNCYHLYPAHAAFGGYKQSGIGRENHRMMLDHYQQTKNLLVSYSTKPMGFF
In the case of B2, in [5] (20 mM 3AP), the Km was 124 ± 49 µM and the kcat/Km was determined as 13000 M⁻¹ s⁻¹. In data set [6] (2 mM NAD+), the Km amounted to 3559 ± 755 µM, the kcat was found to be 1.55 ± 0.35 s⁻¹ and the kcat/Km turned out to be 440 M⁻¹ s⁻¹.

B3: AdhA (ACIAD3339) (Acinetobacter baylyi ADP1) (protein)
chain: MGSLMKAAVVTAFNQPLEIKDVEIPKVTSGKVLVKMIATGVCHTDLHAMHGDWPIKPSLPFIPGHEGVGEVVEIGEGITHLKIGDTVGVPWLYSACGHCDHCYAGWETLCKQQQNSGYSVNGSFAEYCLADGEYVGVIPEGVDLLEIAPILCAGVTVYKGLKMTEAKTGDWVAISGIGGLGHVAVQYAKTMGFNVVAIDVDDSKLELAKQLGADVGINALKVDVKEEVLKATGEGCHGVLVTAVSPKAFEQAVSVVRRGGTMVLNGLPPGKFDLSIFDMVLDGITVRGSIVGTRLDLKEALDIAARGKVKAHISVEPLENINDIFERMEQGKIDGRIVIDLKL
B3: in data set [5] (2 mM 3AP), the Km was determined as 1803 ± 305 µM and the kcat/Km turned out to be 520 M⁻¹ s⁻¹. In addition, the Km in [6] (9 mM NAD+) stood at 141 ± 28 µM.

B4: GabT (ACIAD3446) (Acinetobacter baylyi ADP1) (protein)
chain: MDTKHSALNQRKQQATPRGVGVMCQWYADKAENATIWDAEGNTYIDFAGGIAVLNTGHRHPKVLAAVKAQLERFTHTAYQVTPYESYVALAERINELAPIAGPAKTTFFTTGAEAVENAVKIARCYTGRQGIITFGNGFHGRSFMTMAMTGKTAPYKRDFGLMPGGVFHARYPVESRGISVDDALESIENIFSEDVAPHDVAAIVLEPVQGEGGFNVVPADFLKRLRALCDKHGILLVADEVQTGFARTGKLYAMDHYETKADLITMAKSLGGGFPISGVVGRAEVMDAPNPGGLGGTYAGNPVAVAAAHAVIDAIQEEKLCERANELGAELVHVLKGLQQSTDQVITDIRALGSMVAAEFETAEQAKAVQNYAMQNGLLLLTCGKYGNVIRFLYPLTIPVEQFRSGLDILKQGVASLATDHTTQAIG
For B4, in data set [7], the Km is 399 ± 40 µM, the kcat came to 0.48 ± 0.021 s⁻¹ and the catalytic efficiency (kcat/Km) came out at 1200 M⁻¹ s⁻¹. In addition, in [4] (setting [11]), the Km was 4356 ± 1014 µM, the kcat was 0.22 s⁻¹ and the kcat/Km is 51 M⁻¹ s⁻¹. In data set [8], the Michaelis constant (Km) is 58 ± 7 µM and the kcat/Km amounted to 8300 M⁻¹ s⁻¹.

B5: GabD-like (ACIAD0960) (Acinetobacter baylyi ADP1) (protein)
chain: MAYATVNPYTGETLKEFPFATEQEVKAAIDAGYTAFTTWKDSSFATRAEVLNKAAKILRDKTDYYAKFLTLEMGKLFKEAQGEVEICAQIFEYYAKHAEELLAPTKLSTANKEINATIYYEPQGIVMAVEPWNFPFYQIARILSAQLAAGNTVILKHASIVPQSANAFEQLLLDAGLPQGAFKNLYMQHEHIPLVLNDHRVCGVALTGSEGAGAEVAAHAGKALKKSTLELGGSDAFIVLKDADLEKTAQLAVSGRHSNAGQVCTASKRFIVVDEVYDQFVELYKQGVAKLKAGDPMDPDTTLAPLCSQDAADQLKKQVEKAKAAGATVEAIGAPVPEQGAFFQPLLMTDIQEDNEARYWEFFGPVTQLYRAKDEADAIRIANDSPFGLGGSVYTADHARGVEVAKQIHTGMVYINHPTTSQADLPFGGVGRSGYGRELIDLGLKEFVNHKLIAITDIDAKL
Take B5: in data set [5] (15 mM 3AP), the Km amounted to 4507 ± 363 µM, the kcat is 1.68 ± 0.04 s⁻¹ and the kcat/Km came to 370 M⁻¹ s⁻¹. Besides, in data set [9] (15 mM 3AP), the Km worked out at 3718 ± 1138 µM and the kcat/Km was 1000 M⁻¹ s⁻¹.

B6: BetB (ACIAD1009) (Acinetobacter baylyi ADP1) (protein)
chain: MSDVKLHRLYIHGQYTDATSGKTFDSINPATGEVIATIQQASQTDIEAAVKSAAEGQKVWAAKTAVERSRILRRAVDILRERNDELAQLETLDTGKAFSETSTVDIVTGADVLEYYAGLATAIQGEQVPLRESSFFYTRREPLGVVAGIGAWNYPIQIALWKSAPALAAGNAMIFKPSEVTPLTAFKLAEIYSEAGLPAGVFNVVQGAGREIGQWLTEHAVIEKISFTGGVETGKKVMASAAGSTLKEVTMELGGKSPLIICEDANLDRAADIAVMANFFSSGQVCTNGTRVFIPQRLKAAFEQAVVERVKRIRMGDPQHTDTNFGPLVSFPHMEKVLSYIESGKQQGAKVLIGGERATTGLLAQGAYVQPTVFTDCHDDMKIVQEEIFGPVMSILTYDTIEEAIERANNTNFGLAAGVVTQNISQAHQIIHQLEAGICWINTWGESPAEMPVGGYKESGVGRENGISTLNHYTRTKSIQVELGDYQSVF
On to B6, for which the Km in data set [5] (2.5 mM 3AP) amounted to 20 ± 4 µM; in data set [9] (2.5 mM 3AP) it was 339 ± 67 µM; in [6] (2 mM NAD+), 82 ± 17 µM. Moreover, the kcat/Km in [5] (2.5 mM 3AP) was 74000 M⁻¹ s⁻¹; in data set [9] (2.5 mM 3AP), 7200 M⁻¹ s⁻¹; in data set [6] (2 mM NAD+), 18000 M⁻¹ s⁻¹. Besides, the kcat in [9] (2.5 mM 3AP) was 2.43 ± 0.12 s⁻¹; in [6] (2 mM NAD+) it was 1.48 ± 0.16 s⁻¹.
